Legend:
[1] = biological target: FurBL (BL05249) (Bacillus licheniformis ATCC14580); assay: SEC; Superdex 200 HiLoad 16/60 gel filtration, Chelex-100-treated buffer A (20 mM Tris-HCl, pH 8.0, 0.1 M NaCl, 5% glycerol); oligomeric state judged by elution profile in the last purification step
[2] = biological target: PerRBL (BL00075) (Bacillus licheniformis ATCC14580); assay: as above
[3] = biological target: ZurBL (BL03703) (Bacillus licheniformis ATCC14580); assay: as above
[4] = test system: PerR2 (BL00690) (Bacillus licheniformis ATCC 14580); assay: EMSA; settings: EMSA: 20 mM Tris-HCl pH 8.0, 50 mM KCl, 5% glycerol, 50 ug/ml BSA, 100 uM MnCl2; 6% PAGE in 45 mM Tris-borate with 100 uM MnCl2; temperature not stated
[5] = biological target: the molecule itself; assay: SEC; Superdex 200 HiLoad 16/60 gel filtration, Chelex-100-treated buffer A (20 mM Tris-HCl, pH 8.0, 0.1 M NaCl, 5% glycerol); oligomeric state judged by elution profile in the last purification step

Molecule: FurBL (BL05249) (natural protein)
- stoichiometry N [1]: 2

Molecule: PerRBL (BL00075) (natural protein)
- stoichiometry N [2]: 2

Molecule: ZurBL (BL03703) (natural protein)
- stoichiometry N [3]: 2

Molecule: mrgA promoter fragment with PerR box (273 bp)
- Kd [4]: 70 nM

B1: PerR2 (BL00690) (natural protein, Bacillus licheniformis ATCC14580, UniProt Q62UQ7 1-154, looked up)
chain: MENETNVKQEAMAQLKRKGIRMTPQRLAIYHYFLANRNHPTIAEIQQSLREIYPAVSTATIYNTIRYFKQEGLIKEMGFTDPLRFDLALEEHDHVICEVCGKIVDFHCPQLEKVKDIAARLTGFKVTHHRLELYGICNDCQAKRKYAAKEKGVR
notes: PerR-like protein BL00690 of Bacillus licheniformis ATCC14580; ORF cloned into the NcoI and BamHI sites of pET-16b (pJL202); Contains structural Zn2+ (~0.8 per monomer); source: E. coli BL21 (DE3) pLysS, purified (heparin-Sepharose, SP-Sepharose, Superdex 200)
- stoichiometry N [5]: 2
